± gives the uncertainty stated by the source.
assay: amyloid nucleation score (Sup35N fusion, yeast selection) (log enrichment); library NNK1; higher = more nucleation; inactive = no reads after selection
How it was run: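 Sup35N was fused to peptides of 20 random codons and expressed in psi-negative yeast, which were induced with 100 μM copper sulfate for 24 hours and then grown on medium lacking adenine and uracil for 7 days at 30°C. Plasmid inserts from input and output were sequenced on Illumina. The nucleation score is the DiMSum log enrichment of output over input reads, centred on the mode score of non-aggregating sequences. Sequences with under 100 input reads were left out, and random libraries had three technical output replicates.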

Row | Substance | amyloid nucleation score
1 | LHKIHNAIDILS | 0.504 ± 0.56
2 | EGRPECKARLSRYGRCRMNG | 0.447 ± 0.48
3 | EAVRWRGRNVRNLFWDN | 0.03 ± 0.35
4 | TAASTHLVSACTLTKRCERL | -0.673 ± 0.92
5 | RCMMQYKFTWGIVTYRKDLG | 0.658 ± 0.34
6 | IPKVIGWFTVVTTGVVVNIS | -1.59 ± 2.7
7 | QRKPVCSGLTLFHMLNRVTK | -0.484 ± 0.65
8 | QMCLFKVNLVVTISI | inactive
9 | ALCFGR | inactive
10 | YVQFYGWRTWDLYWYLEWVV | -1.07 ± 0.8
11 | CIWQWVKDNDDNKVAS | -1.04 ± 0.46
12 | ALMDTCSVSSARGHDPCNRP | -0.413 ± 0.78
13 | VESVSWVCDRCTGLVLVWSG | inactive
14 | CSLSRVNHDLMVKDSSKEQR | 4.3 ± 0.073
15 | SPWFAHITPRVIMEERH | -1.18 ± 0.79
16 | PWITCCKVNGIFLTDRCRVV | 0.574 ± 0.3
17 | TMGLSLYGV | -0.174 ± 0.51
18 | RVLRIVEAVVVSSCGFVDLR | 1.69 ± 0.25
19 | QSGGVRVTNWRGNVTAT | 0.043 ± 0.39
20 | WNGLYRFCVVRAQGSFDET | -0.111 ± 0.32
21 | LSFAKGSVFITGDCISGTVD | -1.49 ± 1.7
22 | YYLSLGLKLMSMVPVKSTY | inactive
23 | CDLLRSLTVS | 0.946 ± 0.6
24 | PALFVCSSFKLFMPNILGNQ | 6.16 ± 0.063
25 | IYGTGFIWMFSVPKLERG | -0.537 ± 1.1
26 | CLQCKCYNNCVQLRVTVGCM | 1.37 ± 0.52

Row | Substance | amyloid nucleation score
27 | LSEDVHRTVVRYWMKSRR | 1.74 ± 0.31
28 | NNHFFMILYINKMVYMILKV | 0.38 ± 0.52
29 | WYVLCYGPRFFYMSRLS | -0.411 ± 0.3
30 | VTGKTLTLIEFFIHSQPLSR | 0.217 ± 0.32
31 | CWYET | -1.27 ± 1.9
32 | WMKVARMYRMESRIMNRRQW | 1.13 ± 0.84
33 | LMVYK | 0.575 ± 0.55
34 | YSYKCGGVRTSTSFLSMLFV | 0.811 ± 0.18
35 | KVFVSALCC | 4.19 ± 0.067
36 | FSSSTRSLNNPLL | 0.006 ± 0.44
37 | RIRNSEAGMLYTLYVTRLVD | -0.007 ± 0.31
38 | SLSMSRIQMHNRYKPGTQFD | 1.07 ± 0.46
39 | RESSAAVDTCTILKMTEKVG | -0.131 ± 0.66
40 | PTPEANAIKGLYQRGNCVYG | -0.515 ± 1
41 | FYVVRGHGHCWM | 0.68 ± 0.33
42 | YCQQT | -1.28 ± 0.64
43 | STLLMTSDSSALMLLYTSIL | -0.336 ± 0.46
44 | RACDNMYHYRCLLRSTEHHQ | -0.185 ± 0.22
45 | EMSRGHLHTSFRVYIQMLGG | 4.54 ± 0.073
46 | GPLINTDELWIWSAVCCCRL | -0.781 ± 1.9
47 | RTMLMLMTSVLGGQGK | 7.02 ± 0.079
48 | ILKRSCEVVL | -0.243 ± 0.47
49 | VLVVTALLSRV | 1.67 ± 0.22
50 | IAVPRRQPINLSN | 0.668 ± 0.56
51 | VVGELLGGTNRFGKRVSSMA | -0.057 ± 0.26
52 | QMVYRYDER | -1.43 ± 1.6

Row | Substance | amyloid nucleation score
53 | RNLQILQDYKPSSNQCGRKE | -0.885 ± 0.71
54 | LELTC | 1.6 ± 0.53
55 | FKCLARFWYADYLRFVFARQ | 0.297 ± 0.32
56 | LFNILASFSYFAFYYLLLLS | -0.492 ± 0.8
57 | INLMGSPS | -0.708 ± 0.28
58 | PSYHSRPRSPYGNIEYKEHR | 0.46 ± 0.36
59 | IDSFCKCDISCVIFSWIVVV | 0.024 ± 0.25
60 | YSGWEEITVFFSDARV | -0.115 ± 1.3
61 | CAYVVVLLCSVLVDAGYVCR | 1.94 ± 0.17
62 | IHKMCRAD | 0.12 ± 0.55
63 | AYFMGHCLKGPRVTLVGCKT | 0.525 ± 0.65
64 | VGMSSDCAGSLRRWRLWARL | 4.55 ± 0.1
65 | VFLFNTAYESKNPMSKLKVC | -1.24 ± 0.5
66 | GRGVPGCGCIRDRSLMTNWS | -0.664 ± 0.41
67 | KDRWTCSFVAVCMRYLFAKS | 0.134 ± 0.46
68 | GFTSHFRYLWHILIRYWSNP | 0.442 ± 0.39
69 | CGLLVVLRANVFILCGYK | 0.399 ± 0.24
70 | SWCHFVCLYPKHVFSVVSST | 0.562 ± 1.2
71 | LITYLRLFYRITVRTG | 0.48 ± 0.4
72 | TNGNGFIRRFTRAYFFT | -0.338 ± 0.5
73 | DRYIREISNTATCFALLL | 4.29 ± 0.083
74 | LPGDDTSCEDLSGGVPLWNG | inactive
75 | PTRLPYGTSLIWDTSHANWG | -0.706 ± 0.59
76 | HDGLLVFAFHY | -0.378 ± 1.4
77 | SDYIWWRLCGGIKCQGGELG | -1.74 ± 2.1
78 | NYLLWVAHPIVSY | -0.502 ± 0.34

Row | Substance | amyloid nucleation score
79 | VRNMVFSSGRQLYMWDKLLK | 1.82 ± 0.66
80 | PEDFHNLFLKINGYLSYAFV | -1.54 ± 1.1
81 | CSLKKSMQNYEFHFWFLFIV | -0.757 ± 0.62
82 | QCSMGGRYVRQDS | -0.197 ± 0.6
83 | QNPRIKFIQHVPIYNEGTLP | 1.17 ± 0.43
84 | KIPLNRIAVNASLRQRYCNP | 0.122 ± 0.27
85 | YRFRWRNWSMWVSHKAHKAS | 0.851 ± 0.74
86 | FVSTVYLY | 5.35 ± 0.064
87 | GRREMEGTHIKKICRGGRTR | 1.53 ± 0.73
88 | GNAFFTYMINNYVSYFWHMP | 6.42 ± 0.059
89 | IFILIRYWHCITSSPDVGFG | -0.246 ± 0.61
90 | YLDCIYRGKIISIHTGSGIL | -0.449 ± 0.29
91 | YFLFFFHVDCLRNASC | -1.25 ± 2.7
92 | FSGVTMR | 1.7 ± 0.32
93 | RKSLTGYKYCMKWGTIVAPN | 0.745 ± 0.59
94 | KDEGLTEVFESWISWGW | -0.065 ± 0.9
95 | EGGSF | 0.059 ± 0.45
96 | MVSNNNLYPF | inactive
97 | YACQQ | 0.314 ± 0.62
98 | SIQLMNVFDQVVSQASIKHG | inactive
99 | YHGGYGSSHMWRFVRCIKAY | 0.168 ± 0.27
100 | QCCLNVLDC | 7.65 ± 0.084
101 | CTWYLLVSSSRLLTDSFLPS | 1.32 ± 0.6
102 | TIWLDCLMDKTYVFDCLFSF | 0.587 ± 1.1
103 | KKRSFLGYFVSLAFYNCYQY | 2.73 ± 0.075
104 | LNIEVFNFICNRRAIWMRFA | 0.684 ± 0.53

Row | Substance | amyloid nucleation score
105 | IAVFRYFDSYRPFTRVSVLF | inactive
106 | AYIDKMCTPYNKGRLLMHWY | 1.97 ± 0.48
107 | QTKRSCCSFFVNL | 6.603 ± 0.05
108 | TIMFLVITIPRFHNDLMVLS | -0.79 ± 0.37
109 | NMVSLMVDSELTFVSLICLE | 3.18 ± 0.064
110 | SDYSLTCMGVYGEGKTRGNL | 0.045 ± 0.32
111 | GSQIWW | 0.517 ± 0.46
112 | WCISTIGWRTDGCD | inactive
113 | TTCLTQNLDQGSLLYKVLPR | 1.43 ± 0.18
114 | RKVMKTRVSIDHVNFAERRF | 1.82 ± 0.29
115 | SCVAVSNNMILPRVSGLFEG | 2.55 ± 0.15
116 | VGIEFLYLPFVSSRWVVTKW | 0.277 ± 1.4
117 | FHRVDGVDCRTMYEGV | -0.937 ± 0.72
118 | LTKASHVRLNNVGV | 0.034 ± 0.6
119 | TNITNLSSFVMDDTGWSVNE | inactive
120 | MYTSRQNSARNRKLNSIAGF | -0.721 ± 0.77
121 | VFKGQMVVPPIYVYLVSWMG | -1.06 ± 1.7
122 | SSFIPF | 0.1 ± 0.32
123 | VLPCSGQA | 0.79 ± 0.26
124 | EPYDSLGYPNEDLGTGVFWG | -1.72 ± 2.7
125 | SSDEFVDGSLIWYHLFSPCR | -0.744 ± 0.41
126 | RSVGFEGMSNGWCATES | 0.634 ± 0.77

— the supplement of paper PMC12042874
